In patent US20200199213A1 (Eli Lilly, published 2020):

T1: human ANGPTL3 (human, UniProt Q9Y5C1 17-460)
T1 construct: Biotinylated in the ELISA assays; also called hANGPTL3; free ANGPTL3
T1 sequence: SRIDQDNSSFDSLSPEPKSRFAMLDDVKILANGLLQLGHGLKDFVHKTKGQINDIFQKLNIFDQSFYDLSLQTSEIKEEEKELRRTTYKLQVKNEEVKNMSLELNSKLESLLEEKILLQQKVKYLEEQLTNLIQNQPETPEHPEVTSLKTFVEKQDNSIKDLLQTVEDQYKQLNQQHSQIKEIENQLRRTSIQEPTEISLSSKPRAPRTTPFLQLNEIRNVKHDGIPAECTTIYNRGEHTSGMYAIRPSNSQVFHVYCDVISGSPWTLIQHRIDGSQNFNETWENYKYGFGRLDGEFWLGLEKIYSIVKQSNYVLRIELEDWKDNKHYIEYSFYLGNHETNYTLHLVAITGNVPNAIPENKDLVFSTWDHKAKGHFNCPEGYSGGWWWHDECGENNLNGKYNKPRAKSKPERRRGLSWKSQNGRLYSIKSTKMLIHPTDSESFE

T2: human ANGPTL3/8 complex (human, UniProt Q9Y5C1 17-460; Q6UXH0 22-198, limits assumed)
T2 construct: also called hANGPTL3/8 complex; ANGTPL3/8 complex
T2 sequence 1: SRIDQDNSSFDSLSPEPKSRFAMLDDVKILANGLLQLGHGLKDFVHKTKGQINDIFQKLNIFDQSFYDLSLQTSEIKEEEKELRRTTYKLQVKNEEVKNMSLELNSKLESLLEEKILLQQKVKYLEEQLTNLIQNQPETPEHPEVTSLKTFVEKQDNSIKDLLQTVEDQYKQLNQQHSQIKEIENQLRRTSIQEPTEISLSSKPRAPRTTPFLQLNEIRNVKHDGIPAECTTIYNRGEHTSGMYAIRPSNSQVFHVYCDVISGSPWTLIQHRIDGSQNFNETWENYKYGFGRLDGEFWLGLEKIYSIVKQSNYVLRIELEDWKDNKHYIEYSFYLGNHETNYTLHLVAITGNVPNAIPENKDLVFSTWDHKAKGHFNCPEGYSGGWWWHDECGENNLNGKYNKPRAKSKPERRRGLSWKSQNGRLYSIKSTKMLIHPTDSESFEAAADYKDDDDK
T2 sequence 2: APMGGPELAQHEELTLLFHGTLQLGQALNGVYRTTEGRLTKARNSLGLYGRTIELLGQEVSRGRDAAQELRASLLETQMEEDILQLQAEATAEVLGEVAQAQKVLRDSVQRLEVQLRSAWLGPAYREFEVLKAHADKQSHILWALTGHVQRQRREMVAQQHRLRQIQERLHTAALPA

T3: human ANGPTL8 (human, UniProt Q6UXH0 22-198)
T3 construct: Biotinylated in the ELISA assays; also called hANGPTL8; free ANGPTL8
T3 sequence: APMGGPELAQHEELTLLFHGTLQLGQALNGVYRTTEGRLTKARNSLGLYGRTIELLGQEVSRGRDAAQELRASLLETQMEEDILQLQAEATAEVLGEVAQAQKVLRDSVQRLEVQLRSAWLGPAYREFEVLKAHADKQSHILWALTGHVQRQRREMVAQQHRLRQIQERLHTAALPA


Experiments:
[1] = target: T1, human ANGPTL3; test: ELISA; Ab captured by anti-human Fc; biotinylated antigen at 100 nM
Procedure: (§1) ELISA Assay: Ab binding selectivity to either the ANGPTL3/8 complex, free ANGPTL3 or free ANGPTL8 is verified using standard ELISA assays. […] Ab from CHO supernatants after expression in CHO cells is then captured to the assay plate and results is an Ab concentration of 2 μg/ml. Biotinylated antigen (ANGPTL3, ANGPTL8 or ANGPTL3/8 complex) is added at varying concentrations by serial dilution to allow for Ab/antigen binding. Ab/antigen complexes are detected after the addition of alkaline phosphatase-conjugated neutravidin, and alkaline phosphatase substrate, and subsequent measurement of the optical density at 560 nm.

[2] = target: T2, human ANGPTL3/8 complex; test: as above
Procedure: as §1

[3] = target: T3, human ANGPTL8; test: as above
Procedure: as §1

[4] = target: T1, human ANGPTL3; test: single point ELISA; IgG captured by anti-human Fc; biotinylated antigen at 25 nM
Procedure: (§2) Single Point ELISA (SPE) Assay: Ab binding selectivity to either the ANGPTL3/8 complex, free ANGPTL3 or free ANGPTL8 is initially verified using standard ELISA assays in a single point format. […] IgG secreted into supernatants after expression in CHO cells are then captured to the assay plate. Biotinylated antigen is added at a concentration of 25 nM to allow for Ab/antigen binding. Ab/antigen complexes are detected after adding alkaline phosphatase-conjugated neutravidin and alkaline phosphatase substrate, and subsequent measurement of the optical density at 560 nm. Positive binding is determined by a signal greater than 3 fold over the non-binding background signal.

[5] = target: T2, human ANGPTL3/8 complex; test: as above
Procedure: as §2

[6] = target: T3, human ANGPTL8; test: as above
Procedure: as §2

[7] = target: T1, human ANGPTL3; test: ELISA; Ab captured by anti-human Fc; biotinylated antigen at 11.1 nM
Procedure: as §1

[8] = target: T2, human ANGPTL3/8 complex; test: as above
Procedure: as §1

[9] = target: T3, human ANGPTL8; test: as above
Procedure: as §1

[10] = target: T1, human ANGPTL3; test: ELISA; Ab captured by anti-human Fc; biotinylated antigen at 0.046 nM
Procedure: as §1

[11] = target: T2, human ANGPTL3/8 complex; test: as above
Procedure: as §1

[12] = target: T3, human ANGPTL8; test: as above
Procedure: as §1

[13] = target: T3, human ANGPTL8; test: ELISA; Ab captured by anti-human Fc; biotinylated antigen at 0.137 nM
Procedure: as §1

Binder | OD at 560 nm [1] | OD at 560 nm [2] | OD at 560 nm [3] | OD at 560 nm [4] | OD at 560 nm [5] | OD at 560 nm [6] | OD at 560 nm [7] | OD at 560 nm [8] | OD at 560 nm [9] | OD at 560 nm [10] | OD at 560 nm [11] | OD at 560 nm [12] | OD at 560 nm [13]
anti-ANGPTL3/8 complex Ab having a LC of SEQ ID NO:5 and a HC of SEQ ID NO:6 (antibody, human IgG4 S228P, kappa, F234A L235A, V domains shown, In the ELISA assays tested as IgG from CHO supernatants; also called the Ab) VH: QVTLKESGPTLVKPTQTLTLTCTFSGFSLSISGVGVGWIRQPPGKALEWLALIYRNDDKRYSPSLKSRLTITKDTSKNQVVLTLTNMDPVDTATYYCARTYSSGWYGNWFDPWGQGTLVTVSS VL: DIVMTQTPLSLPVTPGEPASISCRSSQSLLDSDDGNTYLDWYLQKPGQSPQLLIYMLSYRASGVPDRFSGSGSGTDFTLKISRVEAEDVGIYYCMQRIEFPLTFGGGTKVEIKR | 0.081 OD 560 nm | 2.71 OD 560 nm | 0.072 OD 560 nm | 0.074 OD 560 nm | 2.3 OD 560 nm | 0.087 OD 560 nm | 0.046 OD 560 nm | 1.71 OD 560 nm | 0.045 OD 560 nm | 0.06 OD 560 nm | 0.078 OD 560 nm | 0.051 OD 560 nm | 0.047 OD 560 nm
Ab with LC variant having a D31S mutation (SEQ ID NO:21) and a HC of SEQ ID NO:6 (antibody, human IgG4 S228P, kappa, F234A L235A, V domains shown, also called D31S Variant Ab; D31S Ab) VH: QVTLKESGPTLVKPTQTLTLTCTFSGFSLSISGVGVGWIRQPPGKALEWLALIYRNDDKRYSPSLKSRLTITKDTSKNQVVLTLTNMDPVDTATYYCARTYSSGWYGNWFDPWGQGTLVTVSS VL: DIVMTQTPLSLPVTPGEPASISCRSSQSLLSSDDGNTYLDWYLQKPGQSPQLLIYMLSYRASGVPDRFSGSGSGTDFTLKISRVEAEDVGIYYCMQRIEFPLTFGGGTKVEIKR | 0.084 OD 560 nm | 2.47 OD 560 nm | 0.098 OD 560 nm | 0.058 OD 560 nm | 0.928 OD 560 nm | 0.072 OD 560 nm | 0.062 OD 560 nm | 1.74 OD 560 nm | 0.062 OD 560 nm | 0.06 OD 560 nm | 0.149 OD 560 nm | 0.096 OD 560 nm | 0.08 OD 560 nm
Ab with LC variant having a D33A mutation (SEQ ID NO:22) and a HC of SEQ ID NO:6 (antibody, human IgG4 S228P, kappa, F234A L235A, V domains shown, also called D33A Variant Ab; D33A Ab) VH: QVTLKESGPTLVKPTQTLTLTCTFSGFSLSISGVGVGWIRQPPGKALEWLALIYRNDDKRYSPSLKSRLTITKDTSKNQVVLTLTNMDPVDTATYYCARTYSSGWYGNWFDPWGQGTLVTVSS VL: DIVMTQTPLSLPVTPGEPASISCRSSQSLLDSADGNTYLDWYLQKPGQSPQLLIYMLSYRASGVPDRFSGSGSGTDFTLKISRVEAEDVGIYYCMQRIEFPLTFGGGTKVEIKR | 0.082 OD 560 nm | 2.39 OD 560 nm | 0.078 OD 560 nm | 0.076 OD 560 nm | 0.898 OD 560 nm | 0.118 OD 560 nm | 0.06 OD 560 nm | 1.64 OD 560 nm | 0.048 OD 560 nm | 0.062 OD 560 nm | 0.111 OD 560 nm | 0.074 OD 560 nm | 0.053 OD 560 nm
Ab with LC variant having a E99Q mutation (SEQ ID NO:25) and a HC of SEQ ID NO:6 (antibody, human IgG4 S228P, kappa, F234A L235A, V domains shown, also called E99Q Variant Ab; E99Q Ab) VH: QVTLKESGPTLVKPTQTLTLTCTFSGFSLSISGVGVGWIRQPPGKALEWLALIYRNDDKRYSPSLKSRLTITKDTSKNQVVLTLTNMDPVDTATYYCARTYSSGWYGNWFDPWGQGTLVTVSS VL: DIVMTQTPLSLPVTPGEPASISCRSSQSLLDSDDGNTYLDWYLQKPGQSPQLLIYMLSYRASGVPDRFSGSGSGTDFTLKISRVEAEDVGIYYCMQRIQFPLTFGGGTKVEIKR | 0.084 OD 560 nm | 2.47 OD 560 nm | 0.098 OD 560 nm | 0.083 OD 560 nm | 1.54 OD 560 nm | 0.1 OD 560 nm | 0.062 OD 560 nm | 1.74 OD 560 nm | 0.062 OD 560 nm | 0.06 OD 560 nm | 0.149 OD 560 nm | 0.096 OD 560 nm | 0.08 OD 560 nm
